Experimental data: US20060058224A1, “Methods of treating obesity with combination therapeutics” (priority 2004, published 2006)

Legend:
[1] = tested on: DIO (Diet-Induced Obesity; AKR/J mice fed a high fat diet) mice; assay: Effect on body weight in a mouse model of obesity (DIO mice), daily treatment Day 0 to Day 21; format: in vivo; settings: Axokine 0.03 mg/kg SC, phentermine 10.0 mg/kg IP; for loss of starting body weight: after 21 days of daily treatment, control lost 2%; for body weight change in words (FIG. 1): daily administration
Protocol: FIG. 1 is a graph of the change in body weight as a percentage of weight at Day 0 from Day 0 to Day 21 food intake (24 hours) over time (Days —1 to 21) for diet-induced obese (DIO) mice treated with 0.9% NaCl (4 μl/g, intraperitoneal (IP) injection) and placebo (4 μl/g subcutaneous (SC) injection; Group A: Control ═X); Axokine™ (0.03 mg/kg, SC; Group B=⋄); phentermine (10.0 mg/kg, IP; Group C=□); Axokine™ (0.03 mg/kg, SC) and phentermine (10.0 mg/kg, IP; Group D=□); and pair fed to group B=⋄).
(§1) A study was conducted to determine the effect of the combination of phentermine and Axokine™ on body weight and food intake in a mouse model of obesity. 30 DIO (Diet-Induced Obesity; AKR/J mice fed a high fat diet) mice were divided into 5 equal groups (n=6 per group). Four groups were treated daily in the afternoon starting on Day 0 as follows: Group A (control): 0.9% NaCl (4 μl/g, intraperitoneal (IP) injection) and placebo (4 μl/g subcutaneous (SC) injection); Group B: Axokine™ (0.03 mg/kg, SC); Group C: phentermine (10.0 mg/kg, IP); Group D: Axokine™ (0.03 mg/kg, SC)+phentermine (10.0 mg/kg, IP). The […] group, Group E was pair fed to Group B; each animal in this group received the average amount of food the Axokine™ treated animals consumed the previous day. This treatment paradigm continued until Day 21 (last injection on Day 20). […] Animals who were pair-fed to the Axokine™ group, lost weight at a rate similar to that of the Axokine™ group up to Day 11 of the study. After this time, their weight loss reached a plateau.

[2] = tested on: DIO (Diet-Induced Obesity; AKR/J mice fed a high fat diet) mice; assay: 24 h food intake in DIO mice over the 21 day study; format: in vivo, mouse
Protocol: FIG. 2 is a graph of 24 h food intake monitored for the duration of the study for the DIO mice treated as described in the legend of FIG. 1.
as §1
After the second day of the study, control animals resumed their typical eating pattern, consuming approximately 4 g of food a day. Animals who received Axokine™ or were pair-fed, maintained this decreased food intake of about 2.75 g per day until Day 12 when they began to consume more food (3.5 g at the end of the study).

`CC(C)(N)Cc1ccccc1` [phentermine, reference compound] was tested, and the “loss of starting body weight” value [1] was “about 15%”, the “body weight change in words (FIG. 1)” value [1] was “significant decrease in body weight relative to control animals” and the “food intake in words (FIG. 2)” value ([2]; daily treatment, Axokine 0.03 mg/kg SC, phentermine 10.0 mg/kg IP) was “decreased food intake relative to control”.

B1: Axokine™: modified ciliary neurotrophic factor (CNTF) molecule, hCNTF C17A Q63R Δ15 (SEQ ID NO:3 or SEQ ID NO:4) (protein)
chain: MAFTEHSPLTPHRRDLASRSIWLARKIRSDLTALTESYVKHQGLNKNINLDSADGMPVASTDRWSELTEAERLQENLQAYRTFHVLLARLLEDQQVHFTPTEGDFHQAIHTLLLQVAAFAYQIEELMILLEYKIPRNEADGMPINVGDGGLFEKKLWGLKVLQELSQWTVRSIHDLRFISSHQTG
For B1, the “loss of starting body weight” value [1] was “approximately 19%”, the “body weight change in words (FIG. 1)” value [1] was “significant decrease in body weight relative to control animals” and the “24 h food intake at the end of the study” value ([2]; Axokine 0.03 mg/kg SC daily, end of the study (Day 21)) was 3.5 g. For the same molecule, the “24 h food intake” value ([2]; Axokine 0.03 mg/kg SC daily, from Day 2 until Day 12, control approximately 4 g a day) was “about 2.75 g per day”.
